Columns and labels:
[1] = molecular target: T1, recombinant CHO TEM-1 Fc fusion protein (UniProt Q9HCU0); assay: ECL sandwich, competition: biotin-9G5 capture, sulfo-TAG-15F8 detection; MORAb-004 spike 3.125 µg/mL, TEM-1-Fc QC 10 ng/mL; recovery at 0 µg/mL MORAb-004: 105
T1 sequence (looked up): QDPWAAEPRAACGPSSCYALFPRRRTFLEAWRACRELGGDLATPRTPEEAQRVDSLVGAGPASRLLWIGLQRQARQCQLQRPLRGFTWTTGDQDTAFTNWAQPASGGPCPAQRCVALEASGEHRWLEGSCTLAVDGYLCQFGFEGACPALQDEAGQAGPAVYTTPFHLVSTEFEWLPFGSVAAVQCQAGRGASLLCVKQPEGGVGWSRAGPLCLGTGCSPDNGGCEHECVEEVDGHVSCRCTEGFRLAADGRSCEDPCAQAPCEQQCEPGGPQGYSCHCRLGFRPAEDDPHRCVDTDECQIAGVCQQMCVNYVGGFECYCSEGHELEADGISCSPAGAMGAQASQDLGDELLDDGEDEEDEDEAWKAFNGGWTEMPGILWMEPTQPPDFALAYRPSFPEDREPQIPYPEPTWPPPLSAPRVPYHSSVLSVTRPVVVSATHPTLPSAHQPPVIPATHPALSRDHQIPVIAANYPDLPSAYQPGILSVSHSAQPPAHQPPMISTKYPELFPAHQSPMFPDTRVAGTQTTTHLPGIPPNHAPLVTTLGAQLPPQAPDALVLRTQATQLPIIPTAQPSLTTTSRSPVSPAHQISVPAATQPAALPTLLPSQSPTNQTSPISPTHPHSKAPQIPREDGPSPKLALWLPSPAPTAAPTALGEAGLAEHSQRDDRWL

[2] = molecular target: T1, recombinant CHO TEM-1 Fc fusion protein; assay: ECL sandwich, competition: biotin-9G5 capture, sulfo-TAG-15F8 detection; MORAb-004 spike 12.5 µg/mL, TEM-1-Fc QC 0.4 ng/mL; recovery at 0 µg/mL MORAb-004: 109
[3] = molecular target: T1, recombinant CHO TEM-1 Fc fusion protein; assay: ECL sandwich, competition: biotin-9G5 capture, sulfo-TAG-15F8 detection; MORAb-004 spike 1.5625 µg/mL, TEM-1-Fc QC 10 ng/mL; recovery at 0 µg/mL MORAb-004: 105
[4] = molecular target: T1, recombinant CHO TEM-1 Fc fusion protein; assay: ECL sandwich, competition: biotin-9G5 capture, sulfo-TAG-15F8 detection; MORAb-004 spike 6.25 µg/mL, TEM-1-Fc QC 50 ng/mL; recovery at 0 µg/mL MORAb-004: 104
[5] = molecular target: T1, recombinant CHO TEM-1 Fc fusion protein; assay: ECL sandwich, competition: biotin-9G5 capture, sulfo-TAG-15F8 detection; MORAb-004 spike 1.5625 µg/mL, TEM-1-Fc QC 50 ng/mL; recovery at 0 µg/mL MORAb-004: 104
[6] = molecular target: T1, recombinant CHO TEM-1 Fc fusion protein; assay: ECL sandwich, competition: biotin-9G5 capture, sulfo-TAG-15F8 detection; MORAb-004 spike 1.5625 µg/mL, TEM-1-Fc QC 0.4 ng/mL; recovery at 0 µg/mL MORAb-004: 109
[7] = molecular target: T1, recombinant CHO TEM-1 Fc fusion protein; assay: ECL sandwich, competition: biotin-9G5 capture, sulfo-TAG-15F8 detection; MORAb-004 spike 1.5625 µg/mL, TEM-1-Fc QC 0.08 ng/mL; recovery at 0 µg/mL MORAb-004: 114
[8] = molecular target: T1, recombinant CHO TEM-1 Fc fusion protein; assay: ECL sandwich, competition: biotin-9G5 capture, sulfo-TAG-15F8 detection; MORAb-004 spike 25 µg/mL, TEM-1-Fc QC 0.4 ng/mL; recovery at 0 µg/mL MORAb-004: 109
[9] = molecular target: T1, recombinant CHO TEM-1 Fc fusion protein; assay: ECL sandwich, competition: biotin-9G5 capture, sulfo-TAG-15F8 detection; MORAb-004 spike 50 µg/mL, TEM-1-Fc QC 2 ng/mL; recovery at 0 µg/mL MORAb-004: 106
[10] = molecular target: T1, recombinant CHO TEM-1 Fc fusion protein; assay: ECL sandwich, competition: biotin-9G5 capture, sulfo-TAG-15F8 detection; MORAb-004 spike 50 µg/mL, TEM-1-Fc QC 0.4 ng/mL; recovery at 0 µg/mL MORAb-004: 109
[11] = molecular target: T1, recombinant CHO TEM-1 Fc fusion protein; assay: ECL sandwich, competition: biotin-9G5 capture, sulfo-TAG-15F8 detection; MORAb-004 spike 6.25 µg/mL, TEM-1-Fc QC 0.08 ng/mL; recovery at 0 µg/mL MORAb-004: 114
[12] = molecular target: T1, recombinant CHO TEM-1 Fc fusion protein; assay: ECL sandwich, competition: biotin-9G5 capture, sulfo-TAG-15F8 detection; MORAb-004 spike 50 µg/mL, TEM-1-Fc QC 50 ng/mL; recovery at 0 µg/mL MORAb-004: 104
[13] = molecular target: T1, recombinant CHO TEM-1 Fc fusion protein; assay: ECL sandwich, competition: biotin-9G5 capture, sulfo-TAG-15F8 detection; MORAb-004 spike 12.5 µg/mL, TEM-1-Fc QC 0.08 ng/mL; recovery at 0 µg/mL MORAb-004: 114
[14] = molecular target: T1, recombinant CHO TEM-1 Fc fusion protein; assay: ECL sandwich, competition: biotin-9G5 capture, sulfo-TAG-15F8 detection; MORAb-004 spike 0.78125 µg/mL, TEM-1-Fc QC 10 ng/mL; recovery at 0 µg/mL MORAb-004: 105
[15] = molecular target: T1, recombinant CHO TEM-1 Fc fusion protein; assay: ECL sandwich, competition: biotin-9G5 capture, sulfo-TAG-15F8 detection; MORAb-004 spike 12.5 µg/mL, TEM-1-Fc QC 10 ng/mL; recovery at 0 µg/mL MORAb-004: 105

% Recovery of TEM-1 QCs spiked with MORAb-004 [1]: 95.8%
% Recovery of TEM-1 QCs spiked with MORAb-004 [2]: 96.5%
% Recovery of TEM-1 QCs spiked with MORAb-004 [3]: 97.7%
% Recovery of TEM-1 QCs spiked with MORAb-004 [4]: 95.7%
% Recovery of TEM-1 QCs spiked with MORAb-004 [5]: 98.9%
% Recovery of TEM-1 QCs spiked with MORAb-004 [6]: 102%
% Recovery of TEM-1 QCs spiked with MORAb-004 [7]: 103%
% Recovery of TEM-1 QCs spiked with MORAb-004 [8]: 96.5%
% Recovery of TEM-1 QCs spiked with MORAb-004 [9]: 89.9%
% Recovery of TEM-1 QCs spiked with MORAb-004 [10]: 91.9%
% Recovery of TEM-1 QCs spiked with MORAb-004 [11]: 101%
% Recovery of TEM-1 QCs spiked with MORAb-004 [12]: 93.1%
% Recovery of TEM-1 QCs spiked with MORAb-004 [13]: 99.4%
% Recovery of TEM-1 QCs spiked with MORAb-004 [14]: 100%
% Recovery of TEM-1 QCs spiked with MORAb-004 [15]: 91.2%
B1: MORAb-004 (antibody, INN chains, looked up, V domains shown)
VH: QVQLQESGPGLVRPSQTLSLTCTASGYTFTDYVIHWVKQPPGRGLEWIGYINPYDDDTTYNQKFKGRVTMLVDTSSNTAYLRLSSVTAEDTAVYYCARRGNSYDGYFDYSMDYWGSGTPVTVSS
VL: DIQMTQSPSSLSASVGDRVTITCRASQNVGTAVAWLQQTPGKAPKLLIYSASNRYTGVPSRFSGSGSGTDYTFTISSLQPEDIATYYCQQYTNYPMYTFGQGTKVQIK

From patent US20150337051A1 (MORPHOTEK, published 2015)
